Experiment [1] has as its target T1, PDZ protein (GST-PDZ fusion) (Homo sapiens, UniProt P50479).
T1 construct: made in house; host or cells: E. coli (DH5alpha, BL21 or JM109)
T1 sequence (P50479 1-330): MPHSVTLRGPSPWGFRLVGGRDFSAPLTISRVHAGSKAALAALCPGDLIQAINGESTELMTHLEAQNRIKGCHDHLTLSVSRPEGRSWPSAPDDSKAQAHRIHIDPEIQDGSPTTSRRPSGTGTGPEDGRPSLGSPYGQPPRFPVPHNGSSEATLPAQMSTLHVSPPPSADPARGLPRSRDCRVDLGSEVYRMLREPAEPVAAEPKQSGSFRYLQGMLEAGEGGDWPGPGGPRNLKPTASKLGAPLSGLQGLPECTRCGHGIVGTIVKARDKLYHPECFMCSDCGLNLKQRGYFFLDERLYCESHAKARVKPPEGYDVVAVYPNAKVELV
Put plainly: G' assay (10 uM PL peptide), results of TABLE 7 and TABLE 12. The following applies: PDZ LIM RIL, PDZ Domain 1. Type of experiment: binding. Put shortly: (§1)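 Biotinylated PL peptides at 10 uM (vs 20 uM in G^0 assay) bound to GST-PDZ fusions; PDZ protein at 5 ug/ml unless another concentration listed. Bound peptide read as A450 nm, classified 0–5 (0 = A450 0; 5 = A450 >4 repeated).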

The target of experiment [2] is T2, PDZ protein (GST-PDZ fusion) (Homo sapiens, UniProt Q9UDY2).
T2 construct: made in house; host or cells: E. coli (DH5alpha, BL21 or JM109)
T2 sequence (Q9UDY2 1-1190): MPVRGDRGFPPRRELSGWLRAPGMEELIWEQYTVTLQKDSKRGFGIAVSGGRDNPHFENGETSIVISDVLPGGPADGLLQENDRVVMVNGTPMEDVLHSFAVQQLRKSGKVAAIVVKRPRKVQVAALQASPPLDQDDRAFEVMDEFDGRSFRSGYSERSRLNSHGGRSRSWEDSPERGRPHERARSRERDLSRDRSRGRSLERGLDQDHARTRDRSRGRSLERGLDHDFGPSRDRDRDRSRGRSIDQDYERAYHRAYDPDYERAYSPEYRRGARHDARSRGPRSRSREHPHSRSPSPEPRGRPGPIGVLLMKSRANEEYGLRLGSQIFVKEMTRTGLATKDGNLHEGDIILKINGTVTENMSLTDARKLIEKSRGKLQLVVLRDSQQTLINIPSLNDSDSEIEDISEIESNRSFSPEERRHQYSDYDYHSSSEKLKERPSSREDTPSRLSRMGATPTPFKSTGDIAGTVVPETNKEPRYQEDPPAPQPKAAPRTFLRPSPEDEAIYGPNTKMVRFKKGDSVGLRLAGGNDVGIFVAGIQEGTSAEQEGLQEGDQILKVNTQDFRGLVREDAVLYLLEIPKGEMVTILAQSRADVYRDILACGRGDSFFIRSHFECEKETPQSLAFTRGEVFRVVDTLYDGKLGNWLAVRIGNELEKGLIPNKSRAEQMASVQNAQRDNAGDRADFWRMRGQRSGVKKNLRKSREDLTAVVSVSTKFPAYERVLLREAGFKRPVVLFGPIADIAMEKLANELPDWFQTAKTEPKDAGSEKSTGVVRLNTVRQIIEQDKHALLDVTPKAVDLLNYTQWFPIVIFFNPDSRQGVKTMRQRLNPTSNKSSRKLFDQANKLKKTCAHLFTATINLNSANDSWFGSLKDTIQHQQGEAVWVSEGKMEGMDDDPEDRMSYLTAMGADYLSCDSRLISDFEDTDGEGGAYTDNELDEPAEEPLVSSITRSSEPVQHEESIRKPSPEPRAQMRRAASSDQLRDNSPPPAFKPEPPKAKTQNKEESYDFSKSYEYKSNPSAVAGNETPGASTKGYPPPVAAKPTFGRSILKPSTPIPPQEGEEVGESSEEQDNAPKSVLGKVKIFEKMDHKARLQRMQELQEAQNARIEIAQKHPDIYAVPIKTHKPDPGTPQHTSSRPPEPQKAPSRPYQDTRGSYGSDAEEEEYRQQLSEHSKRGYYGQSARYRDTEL
The description is as above. It counts as binding. Put shortly: as §1

Ends that are not written are not given here. Peptide text beside a SMILES is read from it. * marks the point of attachment. Biotin = O=C1N[C@H]2[C@H](CS[C@H]2CCCCC(=O)*)N1

“PYSELNYETSHYPASPDSWV (Biotin-PYSELNYETSHYPASPDSWV) [catenin - delta 2]”: the Classification in experiment [1] is listed as 2 (A450 nm 1-2).

Consider TQGFPGPATWRRISSLESEV, for which the Classification in experiment [1] is listed as 5 (A450 nm of 4 more than 2× repeated).

As to `CC(C)C[C@H](NC(=O)[C@H](C)NC(=O)[C@@H](NC(=O)[C@H](CCC(=O)O)NC(=O)[C@H](CCCNC(=N)N)NC(=O)[C@H](CCCNC(=N)N)NC(=O)CNC(=O)[C@H](CCC(N)=O)NC(=O)[C@H](CC(C)C)NC(=O)[C@H](CCCNC(=N)N)NC(=O)CNC(=O)CNC(=O)[C@H](CCCNC(=N)N)NC(=O)[C@H](C)NC(=O)[C@H](CO)NC(=O)[C@H](CCCNC(=N)N)NC(=O)CNC(=O)CNC(=O)[C@H](C)NC(=O)[C@H](C)NC(=O)CCCC[C@@H]1SC[C@@H]2NC(=O)N[C@@H]21)[C@@H](C)O)C(=O)O` [HPV E6 33 (modified)] (Biotin-AAGGRSARGGRLQGRRETAL-OH; C-terminus assumed), the Classification in experiment [2] (PDZ ZO-2, PDZ Domain 1) is reported as 1 (A450 nm 0-1).

Consider `CC[C@H](C)[C@H](NC(=O)[C@H](CCC(N)=O)NC(=O)CCCC[C@@H]1SC[C@@H]2NC(=O)N[C@@H]21)C(=O)N[C@@H](CO)C(=O)N1CCC[C@H]1C(=O)NCC(=O)NCC(=O)N[C@@H](CC(C)C)C(=O)N[C@@H](CCC(=O)O)C(=O)N1CCC[C@H]1C(=O)N1CCC[C@H]1C(=O)N[C@@H](CO)C(=O)N[C@@H](CCC(=O)O)C(=O)N[C@@H](CCCCN)C(=O)N[C@@H](Cc1c[nH]cn1)C(=O)N[C@@H](Cc1ccccc1)C(=O)N[C@@H](CCCNC(=N)N)C(=O)N[C@@H](CCC(=O)O)C(=O)N[C@H](C(=O)N[C@@H](CCC(=O)O)C(=O)N[C@H](C(=O)O)C(C)C)[C@@H](C)O` [Tax], for which the Classification in experiment [1] is on record as 1 (A450 nm 0-1).

For `CC(C)C[C@H](NC(=O)[C@H](CC(=O)O)NC(=O)[C@H](CO)NC(=O)[C@H](CCC(=O)O)NC(=O)CNC(=O)[C@H](Cc1ccc(O)cc1)NC(=O)[C@H](CC(C)C)NC(=O)[C@H](C)NC(=O)[C@H](CO)NC(=O)[C@H](CO)NC(=O)[C@H](Cc1ccccc1)NC(=O)[C@H](C)NC(=O)[C@H](C)NC(=O)[C@H](Cc1ccc(O)cc1)NC(=O)[C@H](CC(=O)O)NC(=O)[C@H](CC(C)C)NC(=O)[C@H](C)NC(=O)CNC(=O)[C@@H]1CCCN1C(=O)[C@@H](NC(=O)CCCC[C@@H]1SC[C@@H]2NC(=O)N[C@@H]21)C(C)C)C(=O)O` [a-actinin 2] (Biotin-VPGALDYAAFSSALYGESDL-OH; C-terminus assumed), the Classification in experiment [1] is given as 5 (A450 nm of 4 more than 2× repeated).

With `CC[C@H](C)[C@H](NC(=O)[C@H](CCCCN)NC(=O)[C@@H](NC(=O)[C@H](CO)NC(=O)[C@@H]1CCCN1C(=O)[C@H](Cc1ccccc1)NC(=O)[C@@H](NC(=O)[C@@H](NC(=O)[C@H](CCCNC(=N)N)NC(=O)[C@H](CCC(=O)O)NC(=O)[C@H](CC(C)C)NC(=O)[C@H](CC(C)C)NC(=O)[C@H](CC(C)C)NC(=O)[C@@H](NC(=O)CNC(=O)[C@@H](NC(=O)CCCC[C@@H]1SC[C@@H]2NC(=O)N[C@@H]21)C(C)C)[C@@H](C)O)C(C)C)[C@@H](C)CC)C(C)C)C(=O)N[C@@H](C)C(=O)N[C@H](C(=O)N[C@@H](CC(C)C)C(=O)N[C@H](C(=O)O)C(C)C)[C@@H](C)O` [Adenovirus E4 Type9], the Classification in experiment [2] (PDZ ZO-2, PDZ Domain 1, PL peptide 10 uM) was 3 (A450 nm 2-3).

Turning to “A2AA_HUMAN (modified) (Biotin-HDFRRAFKKILARGDRKRIV; not fully specified)”, the Classification in experiment [2] (PDZ ZO-2, PDZ Domain 2) is 2 (A450 nm 1-2).

For “GPVPGEPAKPKTSAHHATFV (Biotin-GPVPGEPAKPKTSAHHATFV)”, in experiment [2] (PDZ ZO-2, PDZ Domain 1), the Classification is given as 1 (A450 nm 0-1).

Take `CC[C@H](C)[C@H](NC(=O)[C@H](CC(=O)O)NC(=O)[C@H](CCC(=O)O)NC(=O)[C@H](CCCNC(=N)N)NC(=O)[C@@H](NC(=O)CCCC[C@@H]1SC[C@@H]2NC(=O)N[C@@H]21)[C@@H](C)O)C(=O)N[C@@H](Cc1ccc(O)cc1)C(=O)N[C@H](C(=O)N[C@@H](CC(N)=O)C(=O)N[C@@H](Cc1ccc(O)cc1)C(=O)N1CCC[C@H]1C(=O)N[C@H](C(=O)N[C@@H](Cc1ccccc1)C(=O)N[C@@H](CO)C(=O)N[C@@H](CCCNC(=N)N)C(=O)N[C@@H](CCCNC(=N)N)C(=O)N1CCC[C@H]1C(=O)N[C@@H](CCCCN)C(=O)N[C@H](C(=O)N[C@@H](CCCNC(=N)N)C(=O)N[C@H](C(=O)O)C(C)C)[C@@H](C)O)[C@@H](C)O)C(C)C` [DNAM-1] (Biotin-TREDIYVNYPTFSRRPKTRV-OH; C-terminus assumed): in experiment [2] (PDZ ZO-2, PDZ Domain 1), the Classification is recorded as 3 (A450 nm 2-3).

Turning to “ELLQFCRTPNPALKNGQYWV (Biotin-ELLQFCRTPNPALKNGQYWV)”, the Classification in experiment [2] (PDZ ZO-2, PDZ Domain 1) is recorded as 5 (A450 nm of 4 more than 2× repeated); in experiment [2] (PDZ ZO-2, PDZ Domain 2) it was 1 (A450 nm 0-1); in experiment [1], 2 (A450 nm 1-2).

As to `CSCC[C@H](NC(=O)[C@H](C)NC(=O)[C@H](CCCNC(=N)N)NC(=O)CNC(=O)[C@@H](NC(=O)[C@H](Cc1c[nH]c2ccccc12)NC(=O)[C@H](CCCNC(=N)N)NC(=O)CNC(=O)CCCC[C@@H]1SC[C@@H]2NC(=O)N[C@@H]21)[C@@H](C)O)C(=O)N[C@@H](CO)C(=O)N[C@@H](C)C(=O)N[C@@H](Cc1c[nH]c2ccccc12)C(=O)N[C@@H](CCCCN)C(=O)N1CCC[C@H]1C(=O)N[C@H](C(=O)N[C@@H](CCCNC(=N)N)C(=O)N[C@@H](CCCNC(=N)N)C(=O)N[C@@H](CCC(=O)O)C(=O)N[C@H](C(=O)N[C@@H](CCC(=O)O)C(=O)N[C@H](C(=O)O)C(C)C)[C@@H](C)O)[C@@H](C)O` [HPV E6 #35 (modified)] (Biotin-GRWTGRAMSAWKPTRRETEV-OH; C-terminus assumed), the Classification in experiment [2] (PDZ ZO-2, PDZ Domain 1) is 2 (A450 nm 1-2); in experiment [1], 4 (A450 nm 3-4).

Consider “VHDAESSDEDGYDWGPATDL (Biotin-VHDAESSDEDGYDWGPATDL) [zona occludens 3 (ZO-3)]”, for which the Classification in experiment [1] is reported as 2 (A450 nm 1-2).

For `CC(C)C[C@H](NC(=O)[C@H](CCCNC(=N)N)NC(=O)CNC(=O)CNC(=O)[C@H](CCCNC(=N)N)NC(=O)[C@H](C)NC(=O)[C@@H]1CCCN1C(=O)[C@H](CCCNC(=N)N)NC(=O)CNC(=O)CNC(=O)[C@@H](NC(=O)[C@H](C)NC(=O)CCCC[C@@H]1SC[C@@H]2NC(=O)N[C@@H]21)C(C)C)C(=O)N[C@@H](CCC(N)=O)C(=O)NCC(=O)N[C@@H](CCCNC(=N)N)C(=O)N[C@@H](CCCNC(=N)N)C(=O)N[C@@H](CCC(N)=O)C(=O)N[C@H](C(=O)N[C@@H](CCC(N)=O)C(=O)N[C@H](C(=O)O)C(C)C)[C@@H](C)O` [HPV E6 58 (modified)] (Biotin-AVGGRPARGGRLQGRRQTQV-OH; C-terminus assumed), the Classification in experiment [2] (PDZ ZO-2, PDZ Domain 1) was 3 (A450 nm 2-3).

As for “LASKSAEEGKQIPDSLSTDL (Biotin-LASKSAEEGKQIPDSLSTDL) [Dock2]”, in experiment [1], the Classification is recorded as 1 (A450 nm 0-1).

For the compound “PPATPSPRLALPAHHNATRL (Biotin-PPATPSPRLALPAHHNATRL) [Na+/Pi cotransporter 2]”, in experiment [2] (PDZ ZO-2, PDZ Domain 1), the Classification is 1 (A450 nm 0-1).

Take “QATSRNGHSARQHVVADTEL (Biotin-QATSRNGHSARQHVVADTEL) [CD34]”: the Classification in experiment [1] is recorded as 1 (A450 nm 0-1).
